In patent publication US20260069656A1, “Nutritive Polypeptides and Formulations Thereof, and Methods of Production and Use Thereof” (Axcella Health Inc., priority 2013, published 2026):

Legend:
[1] = rat, in vivo, po
Experimental: Rat pharmacokinetic studies. Male Sprague Dawley rats with indwelling jugular vein cannula (JVC) were purchased from Harlan Laboratories and acclimated to the Test Facility (Agilux Laboratories) for at least two days prior to study initiation. Prior to dose administration animals were fasted overnight (11-13 h) and remained fasted until completion of the study. Test articles were orally administered via a bulb-tipped 18 gauge stainless steel gavage needle attached to a syringe. The weight of all dose syringes were recorded prior to and following dosing to more accurately determine the amount of solution dosed. Serial blood samples (˜300 μL) were collected from the JVC at time 0 (pre-dose) and 0.25, 0.5, 1, 2, and 4 h post-dose. Blood samples were collected into tubes containing the anti-coagulant K2EDTA, a general protease inhibitor cocktail (Sigma P8340, diluted 1:100 in whole blood), and a DPP IV inhibitor (Millipore DPP4, diluted 1:100 in whole blood). Immediately following blood collection tubes were vortexed and stored on wet ice until processing to plasma by centrifugation (3,500 rpm at 5° C.) within 1 h of collection. Plasma samples were then transferred into new tubes and stored at −80° C.
The concentration of Glu, Ser, His, Gly, Thr, Arg, Ala, Tyr, Val, Met, Phe, Ile, Leu, and Lys in the plasma samples was determined by HPLC amino acid analysis, as described herein. Prior to HPLC amino acid analysis, insoluble particles were removed from plasma samples by centrifugation (1100×g at 4° C.) for 10 min. A 25 μL sample of the soluble fraction was then transferred to a 96-well plate, for some samples an internal standard (Norvaline, Agilent) was added to each plasma sample at final concentration of 0.5 mM.

[2] = rat, in vivo
Experimental: A rat pharmacokinetic study with oral administration of native and modified forms of SEQID-00363 was performed as described herein. The indigestible marker Cobalt-EDTA was formulated at 50 mg/L in the dosed protein solutions to monitor differences in intestinal transit rate between treatment groups and individual rats. Following the final blood collection (at t=4 h) rats were euthanized and the terminal ileum (20 cm of small intestine prior to the cecum) and its contents (the digesta) were collected into a pre-weighed tube. The ileum was flushed with saline and pooled with the digesta. The pH of the digesta was adjusted to ˜3.0 with HCl in order to inactivate all enzymes. The ileum samples were placed into separate pre-weighed 15 mL conical tubes. All samples were flash frozen in liquid nitrogen, and stored at −80° C. until further analysis. Individual ileum and ileum content weights were calculated and recorded for each sample.
A sample of the digesta, which exists as a heterogenous solution containing insoluble particles, was used in the Coomassie Plus Protein Assay, as described herein, to determine protein concentration.

[3] = simulated gi fluid

B1: Deglycosylated SEQID-00363: SEQID-00363 with mannose glycans enzymatically reduced (protein)
chain: ATLDSWLSNEATVARTAILNNIGADGAWVSGADSGIVVASPSTDNPDYFYTWTRDSGLVLKTLVDLFRNGDTSLLSTIENYISAQAIVQGISNPSGDLSSGAGLGEPKFNVDETAYTGSWGRPQRDGPALRATAMIGFGQWLLDNGYTSTATDIVWPLVRNDLSYVAQYWNQTGYDLWEEVNGSSFFTIAVQHRALVEGSAFATAVGSSCSWCDSQAPEILCYLQSFWTGSFILANFDSSRSGKDANTLLGSIHTFDPEAACDDSTFQPCSPRALANHKEVVDSFRSIYTLNDGLSDSEAVAVGRYPEDTYYNGNPWFLCTLAAAEQLYDALYQWDKQGSLEVTDVSLDFFKALYSDAATGTYSSSSSTYSSIVDAVKTFADGFVSIVETHAASNGSMSEQYDKSDGEQLSARDLTWSYAALLTANNRRNSVVPASWGETSASSVPGTCAATSAIGTYSSVTVTSWPSIVATGGTTTTATPTGSGSVTSTSKTTATASKTSTSTSSTSCTTPTAVAVTFDLTATTTYGENIYLVGSISQLGDWETSDGIALSADKYTSSDPLWYVTVTLPAGESFEYKFIRIESDDSVEWESDPNREYTVPQACGTSTATVTDTWR
modifications: deglycosylated; Aspergillus niger
Question: With B1 as the molecule, how does the “bioavailability of amino acids (plasma free amino acids over 4 h)” value [1] read?
Answer: The value was “did not increase the bioavailability of Leucine or EAAs, it did increase the bioavailability of Serine and Threonine”.

Question: What about the “total protein mass in digesta samples” value [2] of the same molecule?
Answer: Its value is 7.7 mg.

Question: What about the “SGF Half-life (t½)” value [3] of the same molecule?
Answer: Its value is 4.3 min.
